Consider two molecules from patent US20140308307A1 (University of Texas, published 2014).

Experiment [1] has as its target 30-kDa subunit of the cellular cleavage and polyadenylation specificity factor (CPSF30), human (human) (UniProt O95639). The experiment can be described thus: cell-based or functional assay.
Experiment [2] concerns the target NS1A protein of the influenza A/PR8/34 (PR8) virus strain (influenza A virus A/PR8/34, UniProt P03496 1-230). Kind of experiment: not described.

30-kDa subunit of the cellular cleavage and polyadenylation specificity factor (CPSF30), human (human), sequence (O95639 whole entry): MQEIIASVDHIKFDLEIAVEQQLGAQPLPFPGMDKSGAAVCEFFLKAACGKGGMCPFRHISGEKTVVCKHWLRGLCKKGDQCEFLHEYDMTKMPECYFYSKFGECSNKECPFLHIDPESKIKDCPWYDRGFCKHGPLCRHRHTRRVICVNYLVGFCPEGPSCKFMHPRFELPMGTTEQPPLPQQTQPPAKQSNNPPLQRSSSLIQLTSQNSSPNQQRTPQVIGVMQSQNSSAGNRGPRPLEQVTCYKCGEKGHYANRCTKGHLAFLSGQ
NS1A protein of the influenza A/PR8/34 (PR8) virus strain, sequence (P03496 whole entry): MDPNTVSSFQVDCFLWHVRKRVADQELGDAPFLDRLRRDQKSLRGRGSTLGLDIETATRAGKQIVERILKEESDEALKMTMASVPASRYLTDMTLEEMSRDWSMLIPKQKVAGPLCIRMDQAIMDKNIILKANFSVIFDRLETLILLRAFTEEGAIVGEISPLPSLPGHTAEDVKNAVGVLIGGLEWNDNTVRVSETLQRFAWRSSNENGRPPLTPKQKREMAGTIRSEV

Molecule “HK97 NS1A protein with I at position 106 changed to M and L at 103 changed to F” registered a rate of replication and virus yield during multiple cycle growth in experiment [1] of 100 fold.

B1: F2F3 fragment of CPSF30 (construct not stated) (other)
chain: SGEKTVVCKHWLRGLCKKGDQCEFLHEYDMTKMPECYFYSKFGECSNKECPFLHIDPESKI
With B1, in experiment [2], the binding result was “no binding”.
